Data taken from patent US20120172295A1 (INDIANA UNIVERSITY RESEARCH AND TECHNOLOGY, published 2012).
Where “and” joins values, the source holds several entries; their conditions need not be identical. Equal values may be shown once. Read-outs that look alike come from different tables or passages of the source. Starred links: 1 amine or outer side, 2 acyl side, 3 side chain; linkers in the order of their positions; H or OH if unused. Positions of bridges follow the written chain, without caps; N, C: chain ends. Non-standard residues stand in square brackets, D forms with d. Groups on a side chain read outwards from the residue. No end group written: not given here. *: point of attachment. γGlu = O=C(O)[C@H](CCC(=O)[*:2])N[*:1]; Palmitoyl = CCCCCCCCCCCCCCCC(=O)*; Myristoyl = CCCCCCCCCCCCCC(=O)*; DMIA = not defined here; Aib = CC(C)(N)C(=O)O

Tests used:
Test in all cases: cell-based or functional assay
glucagon receptor [1] = target: T1, glucagon receptor (UniProt P47871 26-477, limits assumed)
T1 sequence (P47871 26-477 limits assumed): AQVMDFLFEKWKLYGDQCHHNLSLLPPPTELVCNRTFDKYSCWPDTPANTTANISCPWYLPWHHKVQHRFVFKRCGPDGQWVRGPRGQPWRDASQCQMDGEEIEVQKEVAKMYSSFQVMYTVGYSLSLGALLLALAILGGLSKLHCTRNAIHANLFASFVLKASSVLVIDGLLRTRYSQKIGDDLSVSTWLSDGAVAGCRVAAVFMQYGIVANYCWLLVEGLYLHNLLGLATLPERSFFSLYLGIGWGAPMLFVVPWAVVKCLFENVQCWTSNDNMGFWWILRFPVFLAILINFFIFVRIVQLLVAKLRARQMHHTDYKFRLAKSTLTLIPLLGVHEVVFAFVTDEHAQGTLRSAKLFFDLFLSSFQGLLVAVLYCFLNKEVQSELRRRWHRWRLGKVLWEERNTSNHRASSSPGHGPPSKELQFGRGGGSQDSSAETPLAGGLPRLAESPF

GLP-1 receptor [2] = target: T2, GLP-1 receptor (UniProt P43220 24-463, limits assumed)
GLP-1 receptor [3] = target: T2, GLP-1 receptor; remark: listed apart in the source
GIP receptor = target: T3, GIP receptor (UniProt P48546 22-466)
T3 sequence (looked up): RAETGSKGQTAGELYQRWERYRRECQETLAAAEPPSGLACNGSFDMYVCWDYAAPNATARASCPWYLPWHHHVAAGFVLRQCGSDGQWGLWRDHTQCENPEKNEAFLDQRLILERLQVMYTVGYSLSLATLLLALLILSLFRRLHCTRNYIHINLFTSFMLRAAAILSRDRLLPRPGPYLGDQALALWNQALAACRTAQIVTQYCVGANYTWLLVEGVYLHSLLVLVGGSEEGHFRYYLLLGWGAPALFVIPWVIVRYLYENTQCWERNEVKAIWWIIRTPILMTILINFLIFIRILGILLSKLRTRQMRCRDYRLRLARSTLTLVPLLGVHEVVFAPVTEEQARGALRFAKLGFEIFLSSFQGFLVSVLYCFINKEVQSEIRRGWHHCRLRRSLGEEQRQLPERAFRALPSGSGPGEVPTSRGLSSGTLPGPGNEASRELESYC

glucagon receptor [4] = target: T1, glucagon receptor; remark: listed apart in the source

B1: Chi-2, d-Ser2, Lys10 γE-γE-C16 (SEQ ID NO: 644) (peptide)
peptide: H[dS]QGTFTSDK([γGlu-γGlu-Palmitoyl])SKYLDEQAAKEFIAWLMNT
EC50 (glucagon receptor [1]): 0.008 nM | EC50 (GLP-1 receptor [2]): 0.003 nM

B2: mt-350 (peptide)
peptide: H[Aib]QGTFTSDYSKYLDEQAAKEFIC(PEG 40 kDa)WLMNGGPSSGAPPPSK-NH2
% Relative activity (GLP-1 receptor [3]): 58.9% | EC50 (GLP-1 receptor [3]): 0.0107 nM | % Relative activity (GIP receptor): 0% | EC50 (GIP receptor): 77.7 nM

B3: DMIA1, E16/K20 lactam, Lys10 γE-γE-C16 (SEQ ID NO: 652) (peptide)
peptide: [DMIA]SQGTFTSDK([γGlu-γGlu-Palmitoyl])SKYLDERRAKDFVQWLMNT
modifications: lactam 16-20; reading uncertain
EC50 (GLP-1 receptor [2]): 0.004 nM

B4: DMIA1, E16/K20 lactam, Lys29 γE-γE-C16 (SEQ ID NO: 654) (peptide)
peptide: XSQGTFTSDYSKYLDERRAKDFVQWLMNK
modifications: DMIA at 1; E16/K20 lactam; Lys 29 with C16 acyl via γ-Glu-γ-Glu
EC50 (glucagon receptor [1]): 0.025 nM

B5: DMIA1, E16/K20 lactam, Lys10 γE-C16 (SEQ ID NO: 651) (peptide)
peptide: [DMIA]SQGTFTSDK([γGlu-Palmitoyl])SKYLDERRAKDFVQWLMNT
modifications: lactam 16-20; reading uncertain
EC50 (GLP-1 receptor [2]): 0.006 nM

B6: Chi-2, d-Ser2, Lys10 γE-C16 (SEQ ID NO: 643) (peptide)
peptide: H[dS]QGTFTSDK([γGlu-Palmitoyl])SKYLDEQAAKEFIAWLMNT
EC50 (glucagon receptor [1]): 0.011 nM | EC50 (GLP-1 receptor [2]): 0.0014 nM

B7: mt-351 (peptide)
peptide: H[Aib]QGTFTSDYSKYLD[Aib]QAAKEFIC(PEG 40 kDa)WLMNGGPSSGAPPPSK(Myristoyl)-NH2
% Relative activity (glucagon receptor [4]): 10.7% | EC50 (glucagon receptor [4]): 0.196 nM

B8: Chi-2, AIB2, Lys10 γE-C16 (SEQ ID NO: 645) (peptide)
peptide: H[Aib]QGTFTSDK([γGlu-Palmitoyl])SKYLDEQAAKEFIAWLMNT-NH2
modifications: N-terminus assumed
SMILES: CCCCCCCCCCCCCCCC(=O)N[C@@H](CCC(=O)NCCCC[C@H](NC(=O)[C@H](CC(=O)O)NC(=O)[C@H](CO)NC(=O)[C@@H](NC(=O)[C@H](Cc1ccccc1)NC(=O)[C@@H](NC(=O)CNC(=O)[C@H](CCC(N)=O)NC(=O)C(C)(C)NC(=O)[C@@H](N)Cc1c[nH]cn1)[C@@H](C)O)[C@@H](C)O)C(=O)N[C@@H](CO)C(=O)N[C@@H](CCCCN)C(=O)N[C@@H](Cc1ccc(O)cc1)C(=O)N[C@@H](CC(C)C)C(=O)N[C@@H](CC(=O)O)C(=O)N[C@@H](CCC(=O)O)C(=O)N[C@@H](CCC(N)=O)C(=O)N[C@@H](C)C(=O)N[C@@H](C)C(=O)N[C@@H](CCCCN)C(=O)N[C@@H](CCC(=O)O)C(=O)N[C@@H](Cc1ccccc1)C(=O)N[C@H](C(=O)N[C@@H](C)C(=O)N[C@@H](Cc1c[nH]c2ccccc12)C(=O)N[C@@H](CC(C)C)C(=O)N[C@@H](CCSC)C(=O)N[C@@H](CC(N)=O)C(=O)N[C@H](C(N)=O)[C@@H](C)O)[C@@H](C)CC)C(=O)O
EC50 (glucagon receptor [1]): 0.025 nM | EC50 (GLP-1 receptor [2]): 0.0014 nM

B9: Chi-2, AIB2, E3, Lys10 C16 no spacer (SEQ ID NO: 647) (peptide)
peptide: H[Aib]EGTFTSDK(Palmitoyl)SKYLDEQAAKEFIAWLMNT-NH2
modifications: N-terminus assumed
SMILES: CCCCCCCCCCCCCCCC(=O)NCCCC[C@H](NC(=O)[C@H](CC(=O)O)NC(=O)[C@H](CO)NC(=O)[C@@H](NC(=O)[C@H](Cc1ccccc1)NC(=O)[C@@H](NC(=O)CNC(=O)[C@H](CCC(=O)O)NC(=O)C(C)(C)NC(=O)[C@@H](N)Cc1c[nH]cn1)[C@@H](C)O)[C@@H](C)O)C(=O)N[C@@H](CO)C(=O)N[C@@H](CCCCN)C(=O)N[C@@H](Cc1ccc(O)cc1)C(=O)N[C@@H](CC(C)C)C(=O)N[C@@H](CC(=O)O)C(=O)N[C@@H](CCC(=O)O)C(=O)N[C@@H](CCC(N)=O)C(=O)N[C@@H](C)C(=O)N[C@@H](C)C(=O)N[C@@H](CCCCN)C(=O)N[C@@H](CCC(=O)O)C(=O)N[C@@H](Cc1ccccc1)C(=O)N[C@H](C(=O)N[C@@H](C)C(=O)N[C@@H](Cc1c[nH]c2ccccc12)C(=O)N[C@@H](CC(C)C)C(=O)N[C@@H](CCSC)C(=O)N[C@@H](CC(N)=O)C(=O)N[C@H](C(N)=O)[C@@H](C)O)[C@@H](C)CC
EC50 (glucagon receptor [1]): 46.1 nM | EC50 (GLP-1 receptor [2]): 0.005 nM

B10: Chi-2, AIB2, I7, Lys10 γE-C16 (SEQ ID NO: 649) (peptide)
peptide: H[Aib]QGTFISDK([γGlu-Palmitoyl])SKYLDEQAAKEFIAWLMNT-NH2
modifications: N-terminus assumed
SMILES: CCCCCCCCCCCCCCCC(=O)N[C@@H](CCC(=O)NCCCC[C@H](NC(=O)[C@H](CC(=O)O)NC(=O)[C@H](CO)NC(=O)[C@@H](NC(=O)[C@H](Cc1ccccc1)NC(=O)[C@@H](NC(=O)CNC(=O)[C@H](CCC(N)=O)NC(=O)C(C)(C)NC(=O)[C@@H](N)Cc1c[nH]cn1)[C@@H](C)O)[C@@H](C)CC)C(=O)N[C@@H](CO)C(=O)N[C@@H](CCCCN)C(=O)N[C@@H](Cc1ccc(O)cc1)C(=O)N[C@@H](CC(C)C)C(=O)N[C@@H](CC(=O)O)C(=O)N[C@@H](CCC(=O)O)C(=O)N[C@@H](CCC(N)=O)C(=O)N[C@@H](C)C(=O)N[C@@H](C)C(=O)N[C@@H](CCCCN)C(=O)N[C@@H](CCC(=O)O)C(=O)N[C@@H](Cc1ccccc1)C(=O)N[C@H](C(=O)N[C@@H](C)C(=O)N[C@@H](Cc1c[nH]c2ccccc12)C(=O)N[C@@H](CC(C)C)C(=O)N[C@@H](CCSC)C(=O)N[C@@H](CC(N)=O)C(=O)N[C@H](C(N)=O)[C@@H](C)O)[C@@H](C)CC)C(=O)O
EC50 (GLP-1 receptor [2]): 0.024 nM and 0.044 nM

B11: Chi-2, AIB2, E3, Lys10 γE-γE-C16 (SEQ ID NO: 648) (peptide)
peptide: H[Aib]EGTFTSDK([γGlu-γGlu-Palmitoyl])SKYLDEQAAKEFIAWLMNT
EC50 (glucagon receptor [1]): 2.92 nM | EC50 (GLP-1 receptor [2]): 0.004 nM

B12: Chi-2, AIB2, Lys10 γE-γE-C16 (SEQ ID NO: 646) (peptide)
peptide: H[Aib]QGTFTSDK([γGlu-γGlu-Palmitoyl])SKYLDEQAAKEFIAWLMNT-NH2
modifications: N-terminus assumed
SMILES: CCCCCCCCCCCCCCCC(=O)N[C@@H](CCC(=O)N[C@@H](CCC(=O)NCCCC[C@H](NC(=O)[C@H](CC(=O)O)NC(=O)[C@H](CO)NC(=O)[C@@H](NC(=O)[C@H](Cc1ccccc1)NC(=O)[C@@H](NC(=O)CNC(=O)[C@H](CCC(N)=O)NC(=O)C(C)(C)NC(=O)[C@@H](N)Cc1c[nH]cn1)[C@@H](C)O)[C@@H](C)O)C(=O)N[C@@H](CO)C(=O)N[C@@H](CCCCN)C(=O)N[C@@H](Cc1ccc(O)cc1)C(=O)N[C@@H](CC(C)C)C(=O)N[C@@H](CC(=O)O)C(=O)N[C@@H](CCC(=O)O)C(=O)N[C@@H](CCC(N)=O)C(=O)N[C@@H](C)C(=O)N[C@@H](C)C(=O)N[C@@H](CCCCN)C(=O)N[C@@H](CCC(=O)O)C(=O)N[C@@H](Cc1ccccc1)C(=O)N[C@H](C(=O)N[C@@H](C)C(=O)N[C@@H](Cc1c[nH]c2ccccc12)C(=O)N[C@@H](CC(C)C)C(=O)N[C@@H](CCSC)C(=O)N[C@@H](CC(N)=O)C(=O)N[C@H](C(N)=O)[C@@H](C)O)[C@@H](C)CC)C(=O)O)C(=O)O
EC50 (GLP-1 receptor [2]): 0.0018 nM
